From publication PMC5498567

Test system: T1, BsmT (Stenotrophomonas maltophilia ATCC 13637 (CGMCC 1.1788 in supplement)), ORF:ed0b4815
T1 sequence: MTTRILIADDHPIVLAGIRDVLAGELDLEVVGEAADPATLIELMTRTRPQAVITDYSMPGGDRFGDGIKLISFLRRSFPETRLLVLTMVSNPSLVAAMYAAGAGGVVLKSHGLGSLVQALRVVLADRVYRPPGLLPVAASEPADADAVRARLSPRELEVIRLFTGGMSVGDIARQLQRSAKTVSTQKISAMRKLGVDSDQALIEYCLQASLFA
Experiment: EMSA
Settings: EMSA: 1 fmol 32P-labelled dsDNA with BsmT in reaction buffer at 28 °C; buffer composition, salt and pH not given (protein storage buffer 50 mM Tris-HCl, 0.5 mM …)

For “GTGCCCGGCCAATGTCGGTACAGGAAACCCCCGCTTCGGCGGGGGTTCCTTTTTTTGCCACCTGAACGGTGCCCGCGTGCAGGCTCCGGGCCGGTCGGCCAGCCGGGGATTTTAGGAAACAGCTGATTCCGCGCCGTCCGCGCCGCTTCCTAGCATCGTTGC (double strand)”, the binding was “binds”.
